Patent US20190309018A1
Read-outs that look alike come from different tables or passages of the source. Square brackets hold non-standard residues; d marks the D form. Ends that are not written are not given here. Cya = N[C@@H](CS(=O)(=O)O)C(=O)O

Columns and labels:
[1] = biological target: integrins (on human umbilical vein endothelial cells, HUVEC) (human); experiment: cell-based or functional assay
[2] = biological target: integrins (on human umbilical vein endothelial cells, HUVEC) (human); experiment: cell-based or functional assay; remark: listed apart in the source

Molecule	inhibition of HUVEC wound healing (scratch assay on fibronectin coated surface; peptide 1 mM) after 24 hours [1] [%]	inhibition of cell adhesion in a model of wound healing using HUVEC, 12 hours [1] [%]	inhibition of HUVEC wound healing (scratch assay on fibronectin coated surface; peptide 10 mM) after 24 hours [2] [%]	inhibition of cell adhesion in a model of wound healing using HUVEC, 12 hours [2] [%]
Cyclic RGD (RGD-based peptide; N-methylated cyclic-RGDf-N(Me)V; Cilengitide)	45	40		
GRG[Cya]TP-OH [Glycinyl-Arginyl-Glycinyl-Cysteic-Threonyl-Proline-COOH (GRG Cysteic Acid TP)]			70	74
